# Experimental data: doi:10.1101/2025.10.27.684718
# Target: hsKir6.2 (Q52E) subunit of the cryo-EM KATP construct (human) (UniProt Q14654)
# Experiment: cryo-EM structure
substance,measurement,value
hsKir6.2 (Q52E) subunit of the cryo-EM KATP construct (from UniProt Q14654 2-390) (natural protein),stoichiometry N,4
